From patent US20200347144A1 (SHANGHAI HYAMAB BIOTECH, published 2020)
Blank lines part the entries; values can stand above or below the binder they belong to.

How the values were obtained:
[1] = target: T1, mouse 4-1BB protein (extracellular domain) (mouse, UniProt P20334 24-187); test: ELISA, coated mouse 4-1BB; Ab 10 ug/ml
T1 construct: extracellular domain; also called mouse 4-1BB-his; mouse 4-1BB-hFc protein
T1 sequence (looked up): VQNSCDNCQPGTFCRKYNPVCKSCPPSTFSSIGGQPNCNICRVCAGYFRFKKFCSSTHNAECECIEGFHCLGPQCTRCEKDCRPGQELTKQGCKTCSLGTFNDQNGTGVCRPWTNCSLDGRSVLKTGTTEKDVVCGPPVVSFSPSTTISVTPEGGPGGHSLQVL
Experimental: (§1) The purified immunogen A (4-1BB-hFc), monkey 4-1BB-his, and mouse 4-1BB-his obtained in Example 1 [for the preparation method, see step 1 of Example 1, preparation of immunogen A], of which the extracellular domain of monkey-derived 4-1BB protein (purchased from ACRO biosystems), the extracellular domain of mouse 4-1BB protein (purchased from sino biological) or other immune detection point proteins respectively were diluted with PBS to a final concentration of 1.0 μg/mL, then added with […] per well to 96-well ELISA plate. It was sealed with plastic film and incubated at 4° C. overnight. The next day, the plate was washed twice with the plate-washing solution [PBS containing 0.01% (v/v) Tween20] and blocking solution [PBS containing 0.01% (v/v) Tween 20 and 1% (v/v) BSA] was added and blocked at room temperature for 2 hours. The blocking solution was discarded and 100 μl of the purified 4-1BB antibody obtained in Example 2 was added per well. After incubated at 37° C. for 2 hours, the plate was washed 3 times with a plate-washing solution [PBS containing 0.01% (v/v) Tween20]. A secondary antibody (purchased from Sigma) labeled with HRP (horseradish peroxidase) was added, and after incubated at 37° C. for 2 hours, the plate was washed 3 times with a plate-washing solution [PBS containing 0.01% (v/v) Tween20]. 100 μl of TMB substrate was added per well. After incubated for 30 minutes at room temperature, 100 μl of stop buffer (1.0N HCl) was added per well. The A450 nm values were read using an ELISA plate reader (SpectraMax 384plus, Molecular Device).

[2] = target: T1, mouse 4-1BB protein (extracellular …); test: ELISA, coated mouse 4-1BB; Ab 0.0001 ug/ml
Experimental: as §1

[3] = target: T2, human 4-1BB, full length, on transfected cells (human, UniProt Q07011 24-255); test: cell-based or functional assay
[4] = target: T3, his-tagged human 4-1BB protein antigen (human, UniProt Q07011 24-186); test: SPR (Biacore T200), antibody captured on anti-human Fc, his-tagged human 4-1BB as analyte
T3 construct: not shown: his tag
Excerpt: The Biacore T200 instrument (purchased) was used to determine the affinity constant. The specific operation and method were based on the instrument manual and the detailed method provided by the manufacturer. Sensors labeled with anti-human Fc were combined with anti-4-1BB fully human antibodies to detect the binding and dissociation of five different gradients of his-tagged human 4-1BB protein antigen. Then software was used to fit the dissociation constant and the binding constant. The affinity constant is the ratio of the dissociation constant and the binding constant.

[5] = target: T2, human 4-1BB, full length, on …; test: FACS blocking assay on CHOK1-h4-1BB cells: antibody titrated against his-muCD8a-4-1BBL, bound ligand detected with Alexa 488 anti-mouse CD8a; inhibition rate (%) relative to human IgG
Experimental: It was washed three times with FACS buffer by centrifugation, and 100 μl of fixative [4% (v/v) paraformaldehyde] per well was added to suspend cells, and it was washed twice with FACS buffer by centrifugation after 10 minutes. The cells were suspended with 100 microliters of FACS buffer, and the results were detected and analyzed with FACS (FACS Calibur, purchased from BD). […] The IgG control is human IgG, and the data in the table is the inhibition rate of the ligand binding by the fully human 4-1BB antibody relative to the control group (human IgG).

T2 sequence (Q07011 24-255): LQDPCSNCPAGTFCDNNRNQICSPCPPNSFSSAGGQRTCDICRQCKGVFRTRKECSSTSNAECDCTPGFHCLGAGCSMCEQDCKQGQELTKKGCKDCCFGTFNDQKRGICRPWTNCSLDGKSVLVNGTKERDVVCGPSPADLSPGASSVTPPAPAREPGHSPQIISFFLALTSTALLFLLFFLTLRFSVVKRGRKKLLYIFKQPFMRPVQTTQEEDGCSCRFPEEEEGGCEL

B1: 172E3E3 (antibody, V domains shown)
VH: QVQLQESGPGLVKPSGTLSLTCAVSGGSISSSNWWSWVRQPPGKGLEWIGEIYHSGSTNYNPSLKSRVTISVDKSKNQLSLNLSSVTAADTAVYYCARQGGVAGTLYWYFDLWGRGTLVTVSS
VL: DIVMTQSPLSLPVTPGEPASISCRSSQGLLHSNGYNYLDWYLQKPGQSPQLLIYLGSNRASGVPDRFIGSGSGTDFTLKIRRVEAEDVGVYYCMQVLQTPWTFGQGTKVEIK
OD450 nm [1]: 0.3 OD450 nm
OD450 nm [2]: 0.05 OD450 nm

B3: 113F6C6 (antibody, V domains shown)
VH: QVQLVESGGGVVQPGRSLRLSCAASGLTFSSYGMHWVRQAPGKGLEWVAVIWYDGSNKYYADSVKGRFTISRDNSKNTLYLQMNSLRAEDTAVYYCAREEVLWFGELSYNYYYGMDVWGQGTTVTVSS
VL: DIQMTQSPSSLSASVGDRVTITCRASQGISNYLAWYQQKPGKVPKLLIYAASTLQSGVPSRFSGSGSGTDFTLTISSLQPEDVATYYCQKYNSVPLTFGGGTKVEIK
notes: also called 4-1BB fully human antibody 113F6C6; 113F6F6
NFκB luciferase reporter, 4-1BB+ HEK293; EC50; cross-linked [3]: 0.41 nM
NFκB luciferase reporter, 4-1BB+ HEK293; EC50; non-cross-linked [3]: 3.46 nM
NFκB luciferase reporter, 4-1BB+ HEK293; fluorescence multiple vs human IgG; cross-linked; Ab 0.00013 ug/ml [3]: 0.7 fold
NFκB luciferase reporter, 4-1BB+ HEK293; fluorescence multiple vs human IgG; cross-linked; Ab 0.00064 ug/ml [3]: 1.3 fold
NFκB luciferase reporter, 4-1BB+ HEK293; fluorescence multiple vs human IgG; cross-linked; Ab 0.0032 ug/ml [3]: 2.15 fold
NFκB luciferase reporter, 4-1BB+ HEK293; fluorescence multiple vs human IgG; cross-linked; Ab 0.016 ug/ml [3]: 6.55 fold
NFκB luciferase reporter, 4-1BB+ HEK293; fluorescence multiple vs human IgG; cross-linked; Ab 0.08 ug/ml [3]: 14.6 fold
NFκB luciferase reporter, 4-1BB+ HEK293; fluorescence multiple vs human IgG; cross-linked; Ab 0.4 ug/ml [3]: 14.8 fold
NFκB luciferase reporter, 4-1BB+ HEK293; fluorescence multiple vs human IgG; cross-linked; Ab 2 ug/ml [3]: 17.1 fold
NFκB luciferase reporter, 4-1BB+ HEK293; fluorescence multiple vs human IgG; cross-linked; Ab 10 ug/ml [3]: 13.6 fold
NFκB luciferase reporter, 4-1BB+ HEK293; fluorescence multiple vs human IgG; non-cross-linked; Ab 0.00013 ug/ml [3]: 1.25 fold
NFκB luciferase reporter, 4-1BB+ HEK293; fluorescence multiple vs human IgG; non-cross-linked; Ab 0.00064 ug/ml [3]: 0.95 fold
NFκB luciferase reporter, 4-1BB+ HEK293; fluorescence multiple vs human IgG; non-cross-linked; Ab 0.0032 ug/ml [3]: 1.3 fold
NFκB luciferase reporter, 4-1BB+ HEK293; fluorescence multiple vs human IgG; non-cross-linked; Ab 0.016 ug/ml [3]: 4.35 fold
NFκB luciferase reporter, 4-1BB+ HEK293; fluorescence multiple vs human IgG; non-cross-linked; Ab 0.08 ug/ml [3]: 12.7 fold
NFκB luciferase reporter, 4-1BB+ HEK293; fluorescence multiple vs human IgG; non-cross-linked; Ab 0.4 ug/ml [3]: 12.1 fold
NFκB luciferase reporter, 4-1BB+ HEK293; fluorescence multiple vs human IgG; non-cross-linked; Ab 2 ug/ml [3]: 23 fold
NFκB luciferase reporter, 4-1BB+ HEK293; fluorescence multiple vs human IgG; non-cross-linked; Ab 10 ug/ml [3]: 22.1 fold
OD450 nm [1]: 0.25 OD450 nm
OD450 nm [2]: 0.05 OD450 nm
Kd [4]: 17.6 nM
koff [4]: 0.03 s⁻¹
kon [4]: 1.68e+06 M⁻¹ s⁻¹

B5: 118F3A2 (antibody, V domains shown)
VH: QVQLQQWGAGLLKPSETLSLTCGVYGGSFSTNYWSWIRQSPGKGLEWIGEINHSGNTEYNPSLKSRLTISIDTSKNQFSLKLTSVTAADTAVYYCARMGYHSPSFDFWGQGVLVTVSS
VL: KIVMTQSPATLSVSPGERATLPCRVSQGIGSNLAWYQQKPGQAPRLLIYGASTRATGVPARFSGSGSGSEFTLTISSLQSEDLALYYCQQYNNWPLTFGGGTKVEIK
OD450 nm [1]: 0.31 OD450 nm
OD450 nm [2]: 0.05 OD450 nm

The remaining lines, values ahead:

OD450 nm [1]: 0.27 OD450 nm
OD450 nm [2]: 0.05 OD450 nm
B2: 170D7F2 (antibody, V domains shown)
VH: QVQLVQSGAEVKKPGASVKVSCKASGYTFTSYDINWVRQATGQGLEWMGWMNPNSGNTGYAQKFQGRVTMTRNTSISTAYMELSSLRSEDTAVYYCARETGPFDYWGQGTLVTVSS
VL: DIQMTQSPSSLSASVGDRVTITCRASQRINNYLNWYQQKPGKAPKLLIYGASSLQSGVPSRFSGSGSGTDFTLTISSLQPEDFATYYCQQSYSTPFTFGPGTKVDIK

NFκB luciferase reporter, 4-1BB+ HEK293; EC50; cross-linked [3]: 0.94 nM
NFκB luciferase reporter, 4-1BB+ HEK293; fluorescence multiple vs human IgG; cross-linked; Ab 0.00013 ug/ml [3]: 0.9 fold
NFκB luciferase reporter, 4-1BB+ HEK293; fluorescence multiple vs human IgG; cross-linked; Ab 0.00064 ug/ml [3]: 1.15 fold
NFκB luciferase reporter, 4-1BB+ HEK293; fluorescence multiple vs human IgG; cross-linked; Ab 0.0032 ug/ml [3]: 1.1 fold
NFκB luciferase reporter, 4-1BB+ HEK293; fluorescence multiple vs human IgG; cross-linked; Ab 0.016 ug/ml [3]: 2.35 fold
NFκB luciferase reporter, 4-1BB+ HEK293; fluorescence multiple vs human IgG; cross-linked; Ab 0.08 ug/ml [3]: 3.3 fold
NFκB luciferase reporter, 4-1BB+ HEK293; fluorescence multiple vs human IgG; cross-linked; Ab 0.4 ug/ml [3]: 3.6 fold
NFκB luciferase reporter, 4-1BB+ HEK293; fluorescence multiple vs human IgG; cross-linked; Ab 2 ug/ml [3]: 5.55 fold
NFκB luciferase reporter, 4-1BB+ HEK293; fluorescence multiple vs human IgG; cross-linked; Ab 10 ug/ml [3]: 4.3 fold
NFκB luciferase reporter, 4-1BB+ HEK293; fluorescence multiple vs human IgG; non-cross-linked; Ab 0.00013 ug/ml [3]: 0.95 fold
NFκB luciferase reporter, 4-1BB+ HEK293; fluorescence multiple vs human IgG; non-cross-linked; Ab 0.00064 ug/ml [3]: 0.9 fold
NFκB luciferase reporter, 4-1BB+ HEK293; fluorescence multiple vs human IgG; non-cross-linked; Ab 0.0032 ug/ml [3]: 1.4 fold
NFκB luciferase reporter, 4-1BB+ HEK293; fluorescence multiple vs human IgG; non-cross-linked; Ab 0.016 ug/ml [3]: 1.4 fold
NFκB luciferase reporter, 4-1BB+ HEK293; fluorescence multiple vs human IgG; non-cross-linked; Ab 0.08 ug/ml [3]: 2.7 fold
NFκB luciferase reporter, 4-1BB+ HEK293; fluorescence multiple vs human IgG; non-cross-linked; Ab 0.4 ug/ml [3]: 3.5 fold
NFκB luciferase reporter, 4-1BB+ HEK293; fluorescence multiple vs human IgG; non-cross-linked; Ab 2 ug/ml [3]: 5 fold
NFκB luciferase reporter, 4-1BB+ HEK293; fluorescence multiple vs human IgG; non-cross-linked; Ab 10 ug/ml [3]: 7.5 fold
OD450 nm [1]: 0.24 OD450 nm
OD450 nm [2]: 0.05 OD450 nm
Kd [4]: 21.5 nM
koff [4]: 0.0124 s⁻¹
kon [4]: 574000 M⁻¹ s⁻¹
IC50 (read off the curve) [5]: ~2 µg/mL
B4: 57B3D10 (antibody, V domains shown)
VH: QVQLQESGPGLVKPSETLSLTCTVSGGSISSYYWSWIRQPPGKGLEWIGYIYYSGSTNYNPSLKSRVTISVDTSKSQFSLKLTSVTAADTAVYYCAKDSDYYGSGSYSYWYFDLWGRGTLVTVSS
VL: EIVMTQSPATLSVSPGERATLSCRASQSVSSNLAWYQQKPGQAPRLLIYGASTRAPGIPARFSGSGSGTEFTLTISSLQSEDFAVYYCQQYNNWPLTFGGGTKVEIK
notes: also called 4-1BB fully human antibody 57B3D10
